Assay results reported in patent US20240325495A1, “FUSION PROTEINS FOR THE TREATMENT OF DISEASE” (Bristol-Myers Squibb Company, priority 2020, published 2024).

Assays:
[1] = system: rats; test: Toxicity studies in rats: ADA and PD effects; type: in vivo
Source text: (§1) The single- and repeat-dose toxicity of BMS-986326 were characterized in a series of studies in rats for up to 2 weeks and in monkeys up to 12 weeks using selected dosing frequencies. Pivotal good laboratory practice (GLP) repeat-dose studies in both species employed SC administration of BMS-986326 and consisted of two 2-week studies in rats using differing dose frequencies (once weekly [QW] vs twice weekly [2QW]), a 2-week once weekly dosing study in monkeys, and a 12-week (once every 3 week, Q3W) dosing study in monkeys. In addition, single-dose exploratory studies were initially completed in both rats and monkeys to explore the tolerability of BMS-986326, and a single-dose GLP IV toxicity and cardiovascular safety study was also completed in telemeterized monkeys using IV dosing to support IV administration in the first-in-human (FIH) single-ascending dose (SAD) study (IM034001).
(§2) In rats, BMS-986326 was noted to be highly immunogenic, with ADA formation occurring in 84% of BMS-986326-treated rats. In general, the presence of ADA was associated with reduced exposure and loss of PD activity, but was not associated with toxicity.
Intended and unintended PD effects occurred in a dose-dependent manner across all doses of each toxicity study and were generally more pronounced in monkeys than in rats. As an IL-2R agonist, BMS-986326 induced maximal phosphorylation of STAT5 in Treg cells (72% to 95%) across all doses in rats and monkeys, increased Treg cells (up to 63× in monkeys) and/or CD25 expression on CD4 Tregs (up to 4.5× in rats), and raised serum levels of IL-10 (up to 2× in rats and 87× in monkeys). In addition to the desired pharmacologic effects on Tregs, BMS-986326 also led to unintended effects including dose-dependent activation of conventional CD4 and CD8 T cell populations and NK cells, with concomitant elevation of serum IL-5, MCP-1, and perforin. At higher doses of BMS-986326 when dosed weekly in monkeys, increases in B cells (1.6×) and other inflammatory cytokines such as […] (7.9×), IL-1Ra (49×), and IL-6 (5.1×) were also noted. […]

[2] = system: pSTAT5 in Tregs, Tconv, CD8 cells and NK cells; test: Whole blood pSTAT5 assay, selectivity across cell types; type: cell-based
[3] = system: rats and monkeys; test: Toxicity studies in rats and monkeys: common PD and safety findings; type: in vivo; details: GLP pivotal nonclinical studies
Source text: as §1
Intended and unintended PD effects occurred in a dose-dependent manner across all doses of each toxicity study and were generally more pronounced in monkeys than in rats. As an IL-2R agonist, BMS-986326 induced maximal phosphorylation of STAT5 in Treg cells (72% to 95%) across all doses in rats and monkeys, increased Treg cells (up to 63× in monkeys) and/or CD25 expression on CD4 Tregs (up to 4.5× in rats), and raised serum levels of IL-10 (up to 2× in rats and 87× in monkeys). […]

[4] = system: monkeys; test: Toxicity studies in monkeys: ADA and PD effects; type: in vivo
Source text: as §1, §2
Intended and unintended PD effects occurred in a dose-dependent manner across all doses of each toxicity study and were generally more pronounced in monkeys than in rats. As an IL-2R agonist, BMS-986326 induced maximal phosphorylation of STAT5 in Treg cells (72% to 95%) across all doses in rats and monkeys, increased Treg cells (up to 63× in monkeys) and/or CD25 expression on CD4 Tregs (up to 4.5× in rats), and raised serum levels of IL-10 (up to 2× in rats and 87× in monkeys). In addition to the desired pharmacologic effects on Tregs, BMS-986326 also led to unintended effects including dose-dependent activation of conventional CD4 and CD8 T cell populations and NK cells, with concomitant elevation of serum IL-5, MCP-1, and perforin. At higher doses of BMS-986326 when dosed weekly in monkeys, increases in B cells (1.6×) and other inflammatory cytokines such as […] (7.9×), IL-1Ra (49×), and IL-6 (5.1×) were also noted. These inflammatory cytokines were not elevated when lower doses of BMS-986326 were given less frequently (Q3W) in the 12-week monkey toxicity study.

[5] = Nonclinical pharmacokinetics in mice; type: in vivo
Description: (§3) Various in vitro and in vivo studies were conducted to characterize the PK of BMS-986326 in the nonclinical setting.

[6] = system: monkeys; test: Pivotal single-dose IV toxicity and cardiovascular safety study in monkeys; type: in vivo
Source text: as §1
Microscopically, there were dose-dependent multisystemic infiltrates of eosinophils and mononuclear cells in some tissues.

[7] = system: monkeys; test: 2-week toxicity study in monkeys, weekly SC
[8] = system: rats; test: 2-week toxicity study in rats, twice weekly SC; type: in vivo
Source text: The highest exposures were noted during the first week of each study and diminished considerably during the second week, due to ADA impact. […] Splenic capsular fibroplasia with inflammation was considered adverse at all twice weekly doses due to moderate to marked severity and was also associated with minimal to mild inflammation in the mesentery (adjacent to the stomach and pancreas), which further contributed to the adversity of the finding. […] The primary BMS-986326-related effects were mostly minimal in severity at all once weekly doses (0.25, 0.5, or 1 mg/kg) and included increased eosinophils (1.9× to 6.7×); minimal capsular fibroplasia/fibrosis of spleen without inflammation or involvement of adjacent mesentery; and pharmacologically mediated infiltration of eosinophils into a few tissues, none of which were considered adverse due to low magnitude of change and lack of evidence of any compromise in functional integrity of organs involved.

[9] = Nonclinical pharmacokinetics in monkeys; type: in vivo
Description: as §3

In the case of “BMS-986326: recombinant fusion protein of human IL2 and extracellular domain of human CD25, (GGGS)3 linker, non-covalent self-blocking homodimer”, the “ADA formation, % of treated rats” value [1] is reported as 84%, the “increase in CD25 expression on CD4 Tregs” value [1] is reported as “up to 4.5 ×” and the “increase in serum levels of IL-10” value [1] is reported as “up to 2 ×”. The “% of Tregs pSTAT5+” value ([2]; highest concentration of drug) was over 90%, the “% pSTAT5+ cells in Tconv, CD8 cells and NK cells” value ([2]; highest concentration of drug at 71 nM) was under 50% and the “capillary leak syndrome (CLS)” value [3] was “has not been observed”. The “increase in Treg cells” value [4] was “up to 63 ×”, the “increase in serum levels of IL-10” value [4] was at most 87 × and the “increase in B cells” value ([4]; higher doses dosed weekly) was 1.6 ×. The “increase in IFN-7” value ([4]; higher doses dosed weekly) was 7.9 ×, the “increase in IL-1Ra” value ([4]; higher doses dosed weekly) was 49 × and the “increase in IL-6” value ([4]; higher doses dosed weekly) was 5.1 ×. For the same substance, the ADA development ([4]; pivotal toxicity studies) was “generally did not develop”, the “total serum clearance (CLTs)” value [5] was 3.25 mL/h/kg and the “steady-state volume of distribution (Vss)” value ([5]; IV) was 0.0954 L/kg. The absolute bioavailability ([5]; SC dosing) was 58%, the “apparent elimination half-life (T-HALF)” value ([5]; SC dosing) was 28.3 h and the “time of maximum concentration (Tmax)” value ([5]; SC dosing) was 7 h. The “blood pressure, CLS-like effects, hemodynamic and electrocardiographic parameters” value ([6]; monkey, in vivo, iv) was “no decreases in blood pressure, CLS-like effects, or other effects on hemodynamic or electrocardiographic parameters”, the increase in eosinophils ([6]; monkey, in vivo, iv) was “up to 91.6 ×” and the “mean AUC [0-336 h] across all doses” value ([6]; monkey, in vivo, iv) was at most 757 µg·h/mL. For the same substance, the “increased heart rate relative to baseline” value ([6]; monkey, in vivo, iv, 0.5 mg/kg) was 4%, the “transient increase in mean body temperature” value ([6]; monkey, in vivo, iv, 0.5 mg/kg) was “up to 1.1 °C” and the clinical tolerability ([6]; monkeys, single IV 0.05, 0.15 or 0.5 mg/kg) was “clinically well tolerated at all doses”. The “no-observed-adverse-effect level (NOAEL)” value ([6]; monkeys, single IV dose) was 0.5 mg/kg, the “NOAEL AUC[0-336 hours]” value ([6]; single-dose monkey toxicology study) was at most 757 μ·h/ml and the “mean AUC[0-168 h] at NOAEL” value ([7]; 0.125 mg/kg/week) was 132 µg·h/mL. For the same substance, the NOAEL ([7]; 2-week weekly SC) was 0.125 mg/kg/week, the clinically tolerated doses ([7]; weekly SC, 2 weeks) was at most 0.25 mg/kg and the “doses with adverse capsular fibroplasia and inflammation of the spleen” value ([8]; rat, in vivo) was at least 0.5 mg/kg. For the same substance, the “increases in eosinophils versus controls” value ([8]; rat, in vivo, 0.5 mg/kg) was 3-22 ×, the clinically tolerated doses ([8]; rats, 2-week studies, all doses) was at most 2.5 mg/kg and the NOAEL ([8]; rats, twice weekly dosing study) was “a NOAEL was not identified”. The “mean AUC [0-336 h] at tolerated doses” value ([8]; rats, ≤[…]) was at most 600 µg·h/mL, the “total serum clearance (CLTs)” value [9] was 0.769 mL/h/kg and the “steady-state volume of distribution (Vss)” value ([9]; IV) was 0.0734 L/kg. For the same substance, the absolute bioavailability ([9]; SC dosing) was 46%, the “apparent elimination half-life (T-HALF)” value ([9]; SC dosing) was 79.2 h and the “time of maximum concentration (Tmax)” value ([9]; SC dosing) was 24 h.
